Measurements published in article PMC4771075.

Molecular target: Dyn A(1-11)NH2 (Rattus norvegicus)
Assay: radioligand

B1: KOR, P34975 (protein)
chain: MESPIQIFRGEPGPTCAPSACLLPNSSSWFPNWAESDSNGSVGSEDQQLEPAHISPAIPVIITAVYSVVFVVGLVGNSLVMFVIIRYTKMKTATNIYIFNLALADALVTTTMPFQSAVYLMNSWPFGDVLCKIVISIDYYNMFTSIFTLTMMSVDRYIAVCHPVKALDFRTPLKAKIINICIWLLASSVGISAIVLGGTKVREDVDVIECSLQFPDDEYSWWDLFMKICVFVFAFVIPVLIIIVCYTLMILRLKSVRLLSGSREKDRNLRRITKLVLVVVAVFIICWTPIHIFILVEALGSTSHSTAVLSSYYFCIALGYTNSSLNPVLYAFLDENFKRCFRDFCFPIKMRMERQSTNRVRNTVQDPASMRDVGGMNKPV
Question: Which Ki does the source give for B1 here?
Answer: 2.6 nM
